Literature values, collected in paper PMC3324669.
pKd: −log10 of the molar value.

Molecular target: CD155 (Homo sapiens) (UniProt P15151)
Chain of UniProt P15151 (P15151 21-343): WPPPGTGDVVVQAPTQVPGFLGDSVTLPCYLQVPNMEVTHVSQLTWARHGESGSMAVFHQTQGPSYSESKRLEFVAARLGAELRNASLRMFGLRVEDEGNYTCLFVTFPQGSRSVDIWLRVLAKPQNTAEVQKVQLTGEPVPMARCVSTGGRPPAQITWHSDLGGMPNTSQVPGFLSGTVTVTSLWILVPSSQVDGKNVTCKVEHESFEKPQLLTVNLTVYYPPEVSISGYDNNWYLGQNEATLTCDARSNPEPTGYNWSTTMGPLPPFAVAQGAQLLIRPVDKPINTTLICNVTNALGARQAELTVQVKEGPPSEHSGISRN

CD226 (from UniProt Q15762)
pKd: 8.70
